Experimental findings from patent CN114195890A (UNIV SHANGHAI TRAFFIC, dated 2022) are described below.

In this assay the target is T1, 抗原K27-3Ub (化学合成的K27连接泛素链蛋白) (UniProt P0CG48 1-76, ubiquitin units joined through K27 linkages (K27 of one ubiquitin to the C-terminus of the next); biotinylated (biotin-K27-3Ub) in the ELISA).
T1 construct: Chemically synthesised K27-linked tri-ubiquitin provided by the Liu Lei group, Tsinghua University; also called biotin-K27-3Ub; K27泛素链
The experiment in a line: SPR, Biacore 8K, antibody captured on Protein A chip, K27-3Ub as analyte, 1:1 fit. A general note: SPR reads the build-up and loss of mass on a sensor chip optically.

B1: 全长抗体蛋白IgG.zl1901 (antibody, V domains shown)
VH: EVQLVESGAEVKKPGASVKVSCKASGYTFTSYYMHWVRQAPGQGLEWMGIINPSGGSTSYAQKFQGRVTMTRDTSTSTVYMELSSLRSEDTAVYYCARGLRAELLHYYYGMDVWGQGTTVTVSS
VL: not shown
notes: also called 全长抗体IgG.zl1901
As a reminder, the Kd is the free concentration of one partner at which half of the binding sites on the other are occupied at equilibrium, for simple one-to-one binding. Read a high Kd as a looser complex. A word on the koff: it is the rate constant with which the complex falls apart. Low values mean a long-lived complex, high ones a short-lived complex. Turning to B1, the affinity, expressed as Kd, was 3.66 nM and the koff amounted to 0.00234 s⁻¹.
